This data set concerns the molecule itself. The experiment in a line: negative-stain transmission electron microscopy of in vitro assembly; purified NFL (0.24 µg/µL) dialysed stepwise out of urea into assembly buffer, overnight at 4 °C; 2% uranyl acetate.

Data on one protein can be found in paper PMC9779362, “The J Domain of Sacsin Disrupts Intermediate Filament Assembly” (International Journal of Molecular Sciences, 2022).

B1: recombinant human NFL (neurofilament light chain) (natural protein, UniProt P07196 1-543, looked up)
chain: MSSFSYEPYYSTSYKRRYVETPRVHISSVRSGYSTARSAYSSYSAPVSSSLSVRRSYSSSSGSLMPSLENLDLSQVAAISNDLKSIRTQEKAQLQDLNDRFASFIERVHELEQQNKVLEAELLVLRQKHSEPSRFRALYEQEIRDLRLAAEDATNEKQALQGEREGLEETLRNLQARYEEEVLSREDAEGRLMEARKGADEAALARAELEKRIDSLMDEISFLKKVHEEEIAELQAQIQYAQISVEMDVTKPDLSAALKDIRAQYEKLAAKNMQNAEEWFKSRFTVLTESAAKNTDAVRAAKDEVSESRRLLKAKTLEIEACRGMNEALEKQLQELEDKQNADISAMQDTINKLENELRTTKSEMARYLKEYQDLLNVKMALDIEIAAYRKLLEGEETRLSFTSVGSITSGYSQSSQVFGRSAYGGLQTSSYLMSTRSFPSYYTSHVQEEQIEVEETIEAAKAEEAKDEPPSEGEAEEEEKDKEEAEEEEAAEEEEAAKEESEEAKEEEEGGEGEEGEETKEAEEEEKKVEGAGEEQAAKKKD
notes: neurofilament light polypeptide (NFL), human, cloned into pET23b (gift of Dr. Walter Mushynski); Used as assembled filaments (TEM, sedimentation) and as the soluble fraction after centrifugation (pull-down); also called soluble recombinant NFL; source: bacteria (pET23b), inclusion bodies solubilised in 8 M urea, purified on hydroxyapatite, dialysed into assembly buffer
B1: the binding result was “binds”.
